Key:
Type in all cases: cell-based, human
[1] = system: GFP-labeled cancer cell lines; assay: Effect of secreted factors on proliferation under DMSO (pScore); details: DMSO control experiments
From the text: FIGS. 8A-D show schematic overviews of rScore and bScore calculation. Calculation of rScore and bScore is derived from the data points A, B, C, D marked on GFP-level curves of cells under different treatment conditions, as shown in FIGS. 8A-B. As all cells used in the screen are constitutively expressing GFP, GFP level was used as a proxy for the number of cells. […] Proliferation score (pScore) describes the percent of change in the number of cells after seven days of treatment with a given factor. Rescue score (rScore) quantifies the effect of a given factor on the resistance to a given drug. Relative rescue describes the proportion of cells treated with drug+factor out of untreated cells. The higher this ratio, the stronger effect the factor has on drug resistance. Residual drug growth describes the proportion of cells growth under drug relative to no treatment condition. […] Finally, the rescue score (rScore) is the relative rescue after adding a penalty for drugs with low efficacy. […] Bliss Score (bScore) quantifies the extent of synergism between a given factor and a given drug. Factor effect describes the proportion (or probability) of cells killed by the factor. Drug effect describes the proportion (or probability) of cells killed by the drug. The observed killing effect (observed effect) describes the proportion (or probability) of cells killed by both factor and drug. Assuming drug killing and factor killing are independent events, the expected killing effect (expected effect) is the sum of probabilities D and F excluding events intersection (D*F), which represents a subpopulation of cells that may be sensitive to both the drug and factor. Finally, bliss score (bScore) is the delta between observed and expected killing multiplied by −1 to symbolize the expected decrease in the number of cancer cells following the addition of a factor. […] Upper panel—effect on cells proliferation. […] The number of experiments (out of 79) with pro-proliferative effect (pScore>30%) and anti-proliferative effect (pScore<−30%) were counted for each factor in the secretome library. […]

[2] = system: BRAF (V600E) colorectal cancer cell lines; assay: High-throughput secretome screen of GFP-labeled cells (rScore); details: colorectal cell lines bearing BRAF (V600E); BRAF/MEK inhibitors
Description: (§1) Cell lines—All cell lines (Table 1 hereinbelow) were cultured in DMEM supplemented with 100 units/ml Penicillin and Streptomycin, 2 μmM Glutamine, 1 μmM Pyruvate and 10% FCS, and maintained in a humidified incubator at 37° C. and 5% CO2. Cells were routinely tested for Mycoplasma contamination by PCR. To generate stable cell lines constitutively expressing GFP, cells were infected with lentivirus bearing plasmid pLEX_TRC206 and sorted by FACS to enrich for GFP positive population. For the in-vitro experiments, human cancer cell lines which constitutively expressed GFP were treated with various cytotoxic and targeted drugs (see Table 1 hereinbelow); and the effect of different secreted factors (Table 2 hereinbelow) on the innate resistance to a drug based on the cells' GFP level was determined.
(§2) High throughput in-vitro screens—For high-throughput screens or drug dose curves, cells were counted by Vi-Cell XR (Beckman coulter). Cells were seeded on 384 wells plates (Corning, 3712) using the EL406 washer dispenser (BioTek). Liquid handling of medium and drugs was effected by CyBi (WellFlex vario, CyBio). GFP fluorescence of cells was measured at 477/517 nm (excitation/emission) using Cytation3 (BioTek). Due to fluorescence reading bias at plate margins and corners, these margins were discarded for analysis.
High-throughput secretome screens—To screen for the effect of secreted factors on the response of cell lines to different drugs, the following seven-days procedure was performed. On day 0, GFP expressing cells were seeded at 1500-2000 cells per well on 384-wells plates (Corning, 3712), depending on the cell line's proliferation rate. Each plate was seeded with one cell line. […] Cell fluorescence was read at days 1, 4 and 7 by Cytation3, and for some of the experiments at day 6 as well. […]
(2) Based on observations, the plate area spanning rows 4-13 and columns 4-21 was hardly affected by plate margins biases. […] Next, to capture row and column (col) biases for the i-th row and the j-th column, the bias factor was calculated: […]

[3] = system: BRAF (V600E) melanoma cell lines; assay: High-throughput secretome screen of GFP-labeled cells (rScore, bScore, ranks); details: melanoma cell lines bearing BRAF (V600E); BRAF/MEK inhibitors
Description: as §1, §2
High-throughput secretome screens—To screen for the effect of secreted factors on the response of cell lines to different drugs, the following seven-days procedure was performed. On day 0, GFP expressing cells were seeded at 1500-2000 cells per well on 384-wells plates (Corning, 3712), depending on the cell line's proliferation rate. Each plate was seeded with one cell line. At day 1, each plate was treated with the secretome library (Table 2 hereinabove), one well per factor. Immediately afterwards, each plate was treated either with a drug (Table 1 hereinabove) at the EC90 concentration or with DMSO control. The CyBi liquid handler was used to treat each plate with a drug and the secretome library as well as to replace the medium, drug and secreted factors following 3 days of incubation (day 4). Cell fluorescence was read at days 1, 4 and 7 by Cytation3, and for some of the experiments at day 6 as well. Wells of interest were imaged at day 7 using the Operetta (PerkinElmer).
(2) Based on observations, the plate area spanning rows 4-13 and columns 4-21 was hardly affected by plate margins biases. This area is referred to herein as plate core. To control for row specific and column specific biases, plate outliers (Zscore>4 or Zscore<−4) and edges were masked. Next, to capture row and column (col) biases for the i-th row and the j-th column, the bias factor was calculated:
Upon QC completion, 199 experiment plates and 79 control (DMSO) plates were left for further analysis. • 4—Scoring methods-A GFP value for wells without secretome factors was obtained by averaging over the plate internal control wells. Those wells contained the solvents used in the secretome library. pScore: The effect of the secreted factors on proliferation under DMSO was evaluated using pScore (proliferation score). Values were given in percent units.
rScore: The effect of the secreted factors on resistance to anti-cancer drugs was evaluated using rScore (rescue score). rScore was assigned to a given factor under two conditions: • 1. drug effect was >30% (residual drug growth<0.7) • 2. proliferation ratio between factor treated and untreated cells in the presence of drug was higher than one:
rSscore=S−S*residual drug growth
Based on manual inspection of the rScore distribution across the data, the threshold for a potential effect on drug resistance was set to 0.2 (FIGS. 8A-D).
(*) Negative values were considered as zero. […] Groups with less than 4 experiments were discarded, finally resulting in 13 groups of experiments (FIG. 1E). […]

| Molecule | effect on proliferation (pScore) [1] | effect on drug resistance [2] | effect on drug resistance [3] |
| --- | --- | --- | --- |
| insulin: pro-proliferative secreted factor | pro-proliferative |  |  |
| neuregulin-1 | pro-proliferative |  |  |
| BTC: EGFR ligand beta-cellulin (protein, UniProt P35070 32-111, looked up) Betacellulin: DGNSTRSPETNGLLCGDPEENCAATTTQSKRKGHFSRCPKQYKHYCIKGRCRFVVAEQTPSCVCDEGYIGARCERVDLFY |  | mediate resistance only to the colorectal cell lines |  |
| FGF10: fibroblast growth factor 10, ligand of FGFR2IIIb (protein, UniProt O15520 38-208, looked up) Fibroblast growth factor 10: QALGQDMVSPEATNSSSSSFSSPSSAGRHVRSYNHLQGDVRWRKLFSFTKYFLKIEKNGKVSGTKKENCPYSILEITSVEIGVVAVKAINSNYYLAMNKKGKLYGSKEFNNDCKLKERIEENGYNTYASFNWQHNGRQMYVALNGKGAPRRGQKTRRKNTSAHFLPMVVHS |  | could confer drug resistance to colorectal cancers | much smaller effect on melanoma cell lines |
| interferon gamma: anti-proliferative secreted factor (protein, UniProt P01579 24-161, looked up) Interferon gamma: QDPYVKEAENLKKYFNAGHSDVADNGTLFLGILKNWKEESDRKIMQSQIVSFYFKLFKNFKDDQSIQKSVETIKEDMNVKFFNSNKKKRDDFEKLTNYSVTDLNVQRKAIHELIQVMAELSPAAKTGKRKRSQMLFRG | anti-proliferative |  |  |
| FGF7: fibroblast growth factor 7, ligand of FGFR2IIIb (protein, UniProt P21781 32-194, looked up) Fibroblast growth factor 7: CNDMTPEQMATNVNCSSPERHTRSYDYMEGGDIRVRRLFCRTQWYLRIDKRGKVKGTQEMKNNYNIMEIRTVAVGIVAIKGVESEFYLAMNKEGKLYAKKECNEDCNFKELILENHYNTYASAKWTHNGGEMFVALNQKGIPVRGKKTKKEQKTAHFLPMAIT |  | could confer drug resistance to colorectal cancers | much smaller effect on melanoma cell lines |

Source: patent publication US20240133870A1, “COMBINED TREATMENT FOR CANCER” (Yeda Research and Development Co. Ltd., priority 2021, published 2024)
